Data reported in the supplement of paper PMC7877785.
± gives the uncertainty stated by the source.

Experiment: self-splicing fitness, log relative to wild type (ln ratio); higher = more splicing; Tetrahymena group I intron in knt gene, E. coli kanamycin selection, DiMSum; sequences stand for … in CUCUCU…GGAGGGAAAAGUUAUCAGGCAUGCACCUGGUAGCUAGUCUUUAAACCAAUAGAUUGCAUCGGUUUAAAAGGCAAGACCGUCAAAUUGCGGGAAAGGGGUCAACAGCCGUUCAGUACCAAGUCUCAGGGGAAACUUUGAGAUGGCCUUGCAAAGGGUAUGGUAAUAAGCUGACGGACAUGGUCCUAACCACGCAGCCAAGUCCUAAGUCAACAGAUCUUCUGUUGAUAUGGAUGCAGUUCACAGACUAAAUGUCGGUCGGGGAAGAUGUAUUCUUCUCAUAAGAUAUAGUCGGACCUCUCCUUAAUGGGAGCUAGCGGAUGAAGUGAUGCAACACUGGAGCCGCUGGGAACUAAUUUGUAUGCGAAAGUAUAUUGAUUAGUUUUGGAGUACUCGUGGUCG
Summary of the method: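 The eight P1ex-region nucleotides of an intron in the knt kanamycin-resistance gene on pET-22b(+) were all randomised and the library put into E. coli BL21(DE3). Six replicate transformations were grown overnight at 37°C or 30°C on LB agar with or without 25 μg/mL kanamycin, together with 100 μg/mL carbenicillin, 50 μM IPTG and 0.2% rhamnose. Colonies were pooled and amplicon-sequenced on an Illumina HiSeq 2500. Fitness from DiMSum is the error-weighted combination of wild-type-normalised replicate fold changes, kanamycin over none.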

Row | Sequence | self-splicing fitness (ln) (30 °C) | self-splicing fitness (ln) (37 °C)
1 | GCCCAGCAAUAUUACGUACG | -3.98 ± 0.37 | -1.41 ± 0.18
2 | GCCCAGCAAUAUUACGUAGG | -2.35 ± 0.24 | -2.15 ± 0.2
3 | GCCCAGCAAUAUUACGUCGG | -3.13 ± 0.13 | -3.08 ± 0.2
4 | GCCCAGCAAUAUUACGUUAA | -1.6 ± 0.097 | -1.01 ± 0.089
5 | GCCGAGCAAUAUUACGAAGG | -3.25 ± 0.24 | -2.12 ± 0.49
6 | GCCGAGCAAUAUUACGAAUC | -1.68 ± 0.11 | -0.92 ± 0.12
7 | GCCGAGCAAUAUUACGACAA | -3.38 ± 0.34 | -2.05 ± 0.24
8 | GCCGAGCAAUAUUACGAGAG | -3.14 ± 0.3 | -0.44 ± 0.19
9 | GCCGAGCAAUAUUACGAGCC | -3.06 ± 0.14 | -2.3 ± 0.24
10 | GCCGAGCAAUAUUACGCACG | -3.74 ± 0.35 | -1.49 ± 0.36
11 | GCCGAGCAAUAUUACGCAUA | -3.39 ± 0.22 | -1.41 ± 0.16
12 | GCCGAGCAAUAUUACGCCUA | -2.44 ± 0.2 | -1.58 ± 0.16
13 | GCCGAGCAAUAUUACGCGGC |  | -2.33 ± 0.36
14 | GCCGAGCAAUAUUACGCUGC | -4.22 ± 0.36 | -2.81 ± 0.25
15 | GCCGAGCAAUAUUACGGAAG | -2.65 ± 0.23 | -0.897 ± 0.15
16 | GCCGAGCAAUAUUACGGCGG | -2.62 ± 0.21 | -1.91 ± 0.3
17 | GCCGAGCAAUAUUACGGGCC | -3.59 ± 0.32 | -1.99 ± 0.41
18 | GCCGAGCAAUAUUACGGUGA | -1.49 ± 0.088 | -0.176 ± 0.095
19 | GCCGAGCAAUAUUACGGUUC | -4.42 ± 0.3 | -1.79 ± 0.26
20 | GCCGAGCAAUAUUACGUACA | -2.85 ± 0.18 | -1.85 ± 0.17
21 | GCCGAGCAAUAUUACGUAGU | -1.34 ± 0.14 | -0.503 ± 0.16
22 | GCCGAGCAAUAUUACGUCUU | -2.71 ± 0.16 | -1.82 ± 0.14
23 | GCCGAGCAAUAUUACGUUCA | -1.03 ± 0.11 | -0.854 ± 0.14
24 | GCCUAGCAAUAUUACGAACU | -1.67 ± 0.23 | -0.772 ± 0.23
25 | GCCUAGCAAUAUUACGAGGG | -3.68 ± 0.21 | -1.6 ± 0.15

Row | Sequence | self-splicing fitness (ln) (30 °C) | self-splicing fitness (ln) (37 °C)
26 | GCCUAGCAAUAUUACGCCUC | 0.149 ± 0.18 | 0.175 ± 0.41
27 | GCCUAGCAAUAUUACGCUAA | -1.28 ± 0.11 | 0.00419 ± 0.12
28 | GCCUAGCAAUAUUACGGAGC | -2.44 ± 0.13 | -1.43 ± 0.1
29 | GCCUAGCAAUAUUACGGCAG | -2.72 ± 0.19 | -2.18 ± 0.42
30 | GCCUAGCAAUAUUACGGGAC | -2.4 ± 0.13 | -0.0283 ± 0.1
31 | GCCUAGCAAUAUUACGGGUG | -1.02 ± 0.056 | -0.101 ± 0.067
32 | GCCUAGCAAUAUUACGGUAA | -0.151 ± 0.079 | -0.546 ± 0.075
33 | GCCUAGCAAUAUUACGGUGG | -4.34 ± 0.27 | -2.86 ± 0.22
34 | GCCUAGCAAUAUUACGUAAG | -1.83 ± 0.088 | -0.757 ± 0.11
35 | GCCUAGCAAUAUUACGUCAA | -2.16 ± 0.22 | -1.8 ± 0.18
36 | GCCUAGCAAUAUUACGUGCG | -1.6 ± 0.075 | -0.358 ± 0.078
37 | GCCUAGCAAUAUUACGUUGU | -0.142 ± 0.04 | 0.252 ± 0.055
38 | GCGAAGCAAUAUUACGACAU | -0.422 ± 0.012 | 0.0421 ± 0.032
39 | GCGAAGCAAUAUUACGAUAC | -1.99 ± 0.17 | -0.487 ± 0.15
40 | GCGAAGCAAUAUUACGCUUC | -4.53 ± 0.46 | -2.58 ± 0.29
41 | GCGAAGCAAUAUUACGGCCG | -1.71 ± 0.29 | -1.34 ± 0.37
42 | GCGAAGCAAUAUUACGGGAC | -1.66 ± 0.16 | -2.2 ± 0.22
43 | GCGAAGCAAUAUUACGGGUG | -1.77 ± 0.085 | -1.88 ± 0.1
44 | GCGAAGCAAUAUUACGUACA | -1.9 ± 0.19 | -1.29 ± 0.14
45 | GCGAAGCAAUAUUACGUAUU | -3.7 ± 0.15 | -0.392 ± 0.093
46 | GCGAAGCAAUAUUACGUCUG | -1.68 ± 0.088 | -1.81 ± 0.15
47 | GCGAAGCAAUAUUACGUGAC | -1.51 ± 0.28 | -2.05 ± 0.29
48 | GCGAAGCAAUAUUACGUGGU | -3.09 ± 0.17 | -2.92 ± 0.2
49 | GCGCAGCAAUAUUACGACAU | -0.277 ± 0.012 | 0.253 ± 0.032
50 | GCGCAGCAAUAUUACGACGA | 0.345 ± 0.15 | -0.247 ± 0.17

Row | Sequence | self-splicing fitness (ln) (30 °C) | self-splicing fitness (ln) (37 °C)
51 | GCGCAGCAAUAUUACGACGC | -2.89 ± 0.33 | -1.81 ± 0.35
52 | GCGCAGCAAUAUUACGAGAA | -2.67 ± 0.21 | -0.894 ± 0.21
53 | GCGCAGCAAUAUUACGAGCG | -2.39 ± 0.15 | -2.26 ± 0.24
54 | GCGCAGCAAUAUUACGAGCU | -3.19 ± 0.28 | -1.74 ± 0.16
55 | GCGCAGCAAUAUUACGAUCU | -0.609 ± 0.055 | -0.141 ± 0.067
56 | GCGCAGCAAUAUUACGAUGU | -1.21 ± 0.077 | -0.279 ± 0.099
57 | GCGCAGCAAUAUUACGCAAU | -1.56 ± 0.09 | -0.27 ± 0.1
58 | GCGCAGCAAUAUUACGCACG |  | -1.39 ± 0.3
59 | GCGCAGCAAUAUUACGCACU | -1.97 ± 0.13 | -1.23 ± 0.12
60 | GCGCAGCAAUAUUACGCCUA | -0.46 ± 0.24 | 0.407 ± 0.16
61 | GCGCAGCAAUAUUACGCUCA | -0.576 ± 0.14 | 0.238 ± 0.16
62 | GCGCAGCAAUAUUACGCUUC | -1.97 ± 0.24 | -0.419 ± 0.15
63 | GCGCAGCAAUAUUACGGCAA | -0.734 ± 0.14 | -0.814 ± 0.14
64 | GCGCAGCAAUAUUACGGGUA | -2.4 ± 0.13 | -1.59 ± 0.1
65 | GCGCAGCAAUAUUACGGUUG | -2.53 ± 0.1 | -3.34 ± 0.19
66 | GCGCAGCAAUAUUACGUAAA | 0.442 ± 0.089 | 0.263 ± 0.12
67 | GCGCAGCAAUAUUACGUACA | -1.49 ± 0.084 | -0.256 ± 0.088
68 | GCGCAGCAAUAUUACGUAGG | -0.838 ± 0.061 | -0.551 ± 0.086
69 | GCGCAGCAAUAUUACGUCCC | -1.14 ± 0.3 | 0.234 ± 0.2
70 | GCGCAGCAAUAUUACGUCUA | -0.763 ± 0.07 | -0.321 ± 0.079
71 | GCGCAGCAAUAUUACGUUAG | -4.26 ± 0.2 | -2.26 ± 0.18
72 | GCGGAGCAAUAUUACGAACC | -1.32 ± 0.35 | 
73 | GCGGAGCAAUAUUACGAGAU | -2.21 ± 0.27 | -1.94 ± 0.4
74 | GCGGAGCAAUAUUACGAGCG | -1.01 ± 0.17 | 0.152 ± 0.35
75 | GCGGAGCAAUAUUACGAUCA | -2.43 ± 0.41 | -1.56 ± 0.32

Row | Sequence | self-splicing fitness (ln) (30 °C) | self-splicing fitness (ln) (37 °C)
76 | GCGGAGCAAUAUUACGAUCG | -0.357 ± 0.25 | -1.12 ± 0.3
77 | GCGGAGCAAUAUUACGAUGG | -1.16 ± 0.26 | -1.02 ± 0.32
78 | GCGGAGCAAUAUUACGAUUC | -1.32 ± 0.12 | -1.09 ± 0.15
79 | GCGGAGCAAUAUUACGCAUC | -4.01 ± 0.27 | -1.81 ± 0.35
80 | GCGGAGCAAUAUUACGCCGU | -1.4 ± 0.28 | 
81 | GCGGAGCAAUAUUACGCCUC | -3.43 ± 0.38 | -1.06 ± 0.36
82 | GCGGAGCAAUAUUACGCGUC | -3.26 ± 0.18 | -3.2 ± 0.25
83 | GCGGAGCAAUAUUACGCUCG | -2.94 ± 0.43 | 
84 | GCGGAGCAAUAUUACGGAGA | -2.07 ± 0.2 | -1.71 ± 0.41
85 | GCGGAGCAAUAUUACGGAUC | -0.472 ± 0.083 | -0.528 ± 0.17
86 | GCGGAGCAAUAUUACGGUAA | -3.29 ± 0.26 | -2.7 ± 0.31
87 | GCGGAGCAAUAUUACGGUAG | -2.77 ± 0.23 | 
88 | GCGGAGCAAUAUUACGGUAU | -3.38 ± 0.24 | -2.95 ± 0.26
89 | GCGGAGCAAUAUUACGGUGC | -3.56 ± 0.49 | 
90 | GCGGAGCAAUAUUACGGUGU | -3.36 ± 0.23 | -3.11 ± 0.35
91 | GCGGAGCAAUAUUACGUAAG | -3.35 ± 0.33 | -0.951 ± 0.19
92 | GCGGAGCAAUAUUACGUCCA | -2.88 ± 0.33 | -0.822 ± 0.32
93 | GCGGAGCAAUAUUACGUCCG | -0.898 ± 0.32 | -0.455 ± 0.25
94 | GCGGAGCAAUAUUACGUGAU | -2.01 ± 0.47 | -1.42 ± 0.3
95 | GCGGAGCAAUAUUACGUUGA | -2.63 ± 0.32 | -2.31 ± 0.32
96 | GCGUAGCAAUAUUACGAGUA | -1.64 ± 0.16 | -0.623 ± 0.13
97 | GCGUAGCAAUAUUACGAGUG | -1.78 ± 0.15 | -1.19 ± 0.21
